Measured values from the nanobody polyreactivity screen of Harvey et al. (2022).

Assay: yeast display, Sf9 membrane polyspecificity reagent, FACS + sequencing; frameworks hold sequencing errors
How it was run: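 Galactose-induced (36–48 hours) yeast carrying a synthetic nanobody display library were exposed to 10% biotinylated, detergent-solubilized Sf9 membrane reagent at 4 °C for 1 hour. FACS followed streptavidin microbead enrichment, using low and high (top ~1%) gates for expression (anti-HA) and reagent binding (streptavidin). Colony PCR, MiSeq 2 × 250 sequencing and CDR-length filtering followed. Labels for polyreactivity reflect the gate of origin.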
In the case of “QVQLVESGGGLVQAGGRLRLSCAASGRTFSKYPLGWYRQAPGKERELVAAITSGGGTYYADSVKGRFTFSRDNAKNPVYLQMHSRKPEDTAVYYCAVSGTTVSTYDYWGQCTQVTVSS”, the “polyreactivity (PSR sort gate)” value is reported as “low polyreactivity”. In the case of “QVQLVESGGGLVQAGGRLRLSCAASGRTFVYNALGWYRQAPGKERELVAAISQSGGSTYYADSVKGRFTISRDNAKITVYFQMNSLKPEDTAVYYCADRYKTGSYVRYNFWGQGTQVTVSS”, the “polyreactivity (PSR sort gate)” value is reported as “high polyreactivity”. With “QVQLVESGGGLVQAGGRLRLSCAASGRTFYGYAMGWYRQAPGKEREMVAAITQRGVSTYADSVKGRFTISRDNAKNTVYLQMNSLKQEDTAVYYCAADQIERFRDQTWDFDYWGQGTQVTVSS” the “polyreactivity (PSR sort gate)” value was “low polyreactivity”. In the case of “QVQLVESGGGLVQAGGRLRLSCAASGSFFGGSGMGWYRQAPGKERELVAAITSGSSTYYADSVNGRFTISRDNAKNTVYLQMNSLKPEDSAVYYCAARPYPHSAYEGDYWGRGTQVTVSS”, the “polyreactivity (PSR sort gate)” value is reported as “low polyreactivity”. With “QVQLVESGGGLVQAGGRLRLSCAASGSIFAGYAMGWYRQAPGKERELVAAITSSCGSTYYADSVKGRFTISRDNAKNTVYLQMNSLNPEDTAVYYCAKDKLIFYRVGSDYWGQGTQVTVSS” the “polyreactivity (PSR sort gate)” value was “low polyreactivity”. In the case of “QVQLVESGGGLVQAGGRLRLSCAASGSIFCVNAMGWSRQAPGKERELVATITGSSGITYYADSVKGRFTISRVNAKNTVYLQMNSVKPEDTAVYYCAAVLLKFAYNYNYWGQGTQVTVSS”, the “polyreactivity (PSR sort gate)” value is reported as “low polyreactivity”. For “QVQLVESGGGLVQAGGRLRLSCAASGSIFGANTMVWYRQAPGKERELVAAISSGGNTYYADSVKGRFTISRDNAKNTVYLQMNSLKPEDTAVYYCNAQTRYRYQYGYLGGTGYNYWGQGTQVTVSS”, the “polyreactivity (PSR sort gate)” value was “low polyreactivity”. With “QVQLVESGGGLVQAGGRLRLSCAASGSIFGRYAMGRYRQAPGKERELVAAITWSATSTYYADYVKGRFTISRDNAKNTVYLQMNSLKPEDTAVYYCAVRTPRARYTYGSWGQGTQVTVSS” the “polyreactivity (PSR sort gate)” value was “high polyreactivity”. With “QVQLVESGGGLVQAGGRLRLSCAASGSIFLFYAMGWYRKAPVKERELVARITSSGGTTYYADSVKGRFTISRDNAKNTVYLQMNSLKPEDTAVYYCAASYFIYHYDFDYWGQGTQVTVSS” the “polyreactivity (PSR sort gate)” value was “high polyreactivity”. With “QVQLVESGGGLVQAGGRLRLSCAASGSIFNYYARGWYRQAPGKERELVAAIPTSGGNPYYADSVKGRFTISRDNAKNTVKLQMNSLKPEDTALYNCAADYWASGGEYDYWGQGTQVTVSS” the “polyreactivity (PSR sort gate)” value was “low polyreactivity”. With “QVQLVESGGGLVQAGGRLRLSCAASGSIFQKNAMGWYRQAPGKERELVAVITRGGTSTYYADSVKGRFTISRDNAKNTVYLQMNSLKTEDTAVYYCAAKADKRLDYWGQGTQVTVSS” the “polyreactivity (PSR sort gate)” value was “low polyreactivity”. In the case of “QVQLVESGGGLVQAGGRLRLSCAASGSIFRYYDMGWYRQATGKEREFVAAISYRGGTTYYADSVKGRFTISRDNAKNTVYLQMNSLKPEDTAVYYCAKETYRSSSYDWYDYWGQGTQVTVSS”, the “polyreactivity (PSR sort gate)” value is reported as “low polyreactivity”. For “QVQLVESGGGLVQAGGRLRLSCAASGSIFSIYPMGWYRQAPGKERDFVASITVTDGSTYYADSVKGRFTISRDNAKNTVYLQMNSLKPEDTADYYCNADGWYALYEWLAVSGYYWGQGTQVTVSS”, the “polyreactivity (PSR sort gate)” value was “low polyreactivity”. In the case of “QVQLVESGGGLVQAGGRLRLSCAASGSIFSRNAMGRYRQATGKESELVAAISRGGSTNYADSVKGRFTISRDNAKNTVYLQMNSLKPEDTAVYYCANVGRRSWYRWLGPLWYGGMDYWGQGTQVTVSS”, the “polyreactivity (PSR sort gate)” value is reported as “low polyreactivity”. With “QVQLVESGGGLVQAGGRLRLSCAASGSIFTVYSMGWYRQAPGKERELVASIRFSSGRTYYADSVKGRFTISRDNAKNTVYLQMNSLKPEDTAVYYCAAETVSWYRYYYWGQGTQVTVSS” the “polyreactivity (PSR sort gate)” value was “high polyreactivity”. With “QVQLVESGGGLVQAGGRLRLSCAASGSIFYSNAMGWYRQAPGKEREFVAAISAGGGSTYYADSVKGRFTISRDNAKNTVYLQMNSMKPEDTAVYFCAAQPYKIIYPYDYWGQGTQVTVSS” the “polyreactivity (PSR sort gate)” value was “low polyreactivity”.
